In US11434299 (TENEOBIO, dated 2022):

B1: SEQ ID NO 29 (antibody, V domains shown)
VH: EVQLLESGGGLVQPGGSLRLSCAASGFTFSSYAMNWVRQAPGKGLEWVSGIIGSGGSTYYADSVKGRFTISRDNSKNTLYLQMNSLRAEDTAVYYCVKDWNTTMITERGQGTLVTVSS
notes: UniAb: CH1 deleted, no light chain; HEK supernatant
B2: SEQ ID NO 20 (antibody, V domains shown)
VH: EVQLLESGGGLAQPGGSLRLSCAASGFTFSSYAMNWIRQAPGKGLEWVSGISGSGGSTYYADSVKGRFTISRDNSKNTVYLQMNSLRAEDTAVYYCVKDWNTTMITERGQGTLVTVSS
notes: as for B1
B3: SEQ ID NO 21 (antibody, V domains shown)
VH: EVQLLESGGGLVQPGRSLRLSCAASGFTFTNYAMNWVRQAPGKGLEWVSGISGGGGSTYYADSVKGRFTISRDNSKNTLYLQMNSLRAEDTAVYYCVKDWNTTMITERGQGTLVTVSS
notes: as for B1
B4: SEQ ID NO 22 (antibody, V domains shown)
VH: EVQLLESGGGLVQPGGSLRLSCAASGFTFSSYAMTWVRQAPGKGLEWVSGITENGGSTYYADSVKGRFTISRDNSKNTLDLQMNSLRAEDTAVYYCVKDWNTTMITERGQGTLVTVSS
notes: as for B1
B5: SEQ ID NO 23 (antibody, V domains shown)
VH: EVQLLESGGGLVQPGGSLRLSCAASGFTFSSYAMSWVRQAPGKGLEWVSGITGDGGSTFYADSVKGRFTISRDNSKNTLYLQMNSLRAEDTAVYYCVKDWNTTMITERGQGTLVTVSS
notes: as for B1
B6: SEQ ID NO 24 (antibody, V domains shown)
VH: EVQLLESGGGLVQPGGSLRLSCAASGFTFSSYAMSWVRQAPGKGLEWVSGIIGSGGSTYYADSVKGRFSISRDNSKNTLDLQMNSLRAEDTAVYYCVKDWNTTMITERGQGTLVTVSS
notes: as for B1
B7: SEQ ID NO 27 (antibody, V domains shown)
VH: EVQLLESGGGLVQPGGSLRLSCAASGFTFSSYAMNWVRQAPGKGLEWVSGLTGNGDSTYYADSVKGRFTISRDNSKNTVYLQMNSLRAEDTAVYYCVKDWNTTMITERGQGTLVTVSS
notes: as for B1
B8: SEQ ID NO 28 (antibody, V domains shown)
VH: EVQLLESGGGLVQPGGSLRLSCAASGFTFSSYAMNWVRQAPGKGLEWVSGITGSGGSTYYADSVKGRFSISRDNSKNTLDLQMNSLRAEDTAVYYCVKDWNTTMITERGQGTLVTVSS
notes: as for B1
B9: SEQ ID NO 30 (antibody, V domains shown)
VH: EVQLLESGGGLVQPGGSLRLSCAASGFTFSSYAMNWVRQAPGKGLEWVSGIIGSGGSTYYADSVKGRFTISRDNSKNTVYLQMNSLRAEDTAVYYCVKDWNTTMITERGQGTLVTVSS
notes: as for B1
B10: SEQ ID NO 31 (antibody, V domains shown)
VH: EVQLLESGGGLVQPGGSLRLSCAASGFTFSSYAMNWVRQAPGKGLEWVSGITGSGDSTYYAASVKGRFSISRDNSQNTLDLQMNSLRAEDTAVYYCVKDWNTTMITERGQGTLVTVSS
notes: as for B1
B11: SEQ ID NO 32 (antibody, V domains shown)
VH: EVQLLESGGGLVQPGGSLRLSCAASGFTFSSYAMSWVRQAPGKGLEWVSGLTGSGDSTYYADSVKGRFTISRDNDKNTVYLQMNSLRAEDTAVYYCVKDWNTTMITERGQGTLVTVSS
notes: as for B1
B12: SEQ ID NO 33 (antibody, V domains shown)
VH: EVQLLESGGGLVQPGGSLRLSCAASGFTFSNYAMTWIRQAPGKGLEWVSGITGDGGSTFYADSVKGRFSISRDNSKNTLDLQMNSLRAEDTAVYYCVKDWNTTMITERGQGTLVTVSS
notes: as for B1
B13: SEQ ID NO 34 (antibody, V domains shown)
VH: EVQLLESGGGLVQPGGSLRLSCAASGFTFSRYAMNWIRQAPGKGLEWVSGIVGSGGNTYYADSVKGRFSISRDNSKNTLYLQMNSLRAEDTAVYYCVKDWNTTMITERGQGTLVTVSS
notes: as for B1
B14: SEQ ID NO 35 (antibody, V domains shown)
VH: EVQLLESGGGLVQPGGSLRLSCAASGFTFSSYAMSWVRQAPGKGLEWVSGITGSGGSTYYADSVKGRFSISRDNSKNTLDLQMNSLRAEDTAVYYCVKDWNTTMITERGQGTLVTVSS
notes: as for B1
B15: SEQ ID NO 36 (antibody, V domains shown)
VH: EVQLLESGGGLVQPGGSLRLSCAASGFTFSNYAMNWVRQAPGNGLEWVSGLTGSGGSTYYADSVKGRFTISRDNSKNTVYLQMNSLRAEDTAVYYCVKDWNTTMITERGQGTLVTVSS
notes: as for B1
B16: SEQ ID NO 37 (antibody, V domains shown)
VH: EVQLLESGGGLVQPGGSLRLSCAASGFTFTNYAMNWVRQAPGKGLEWVSGIIGSGGSTYYADSVKGRFTISRDNSKNTLYLQMNSLRAEDTAVYYCVKDWNTTMITERGQGTLVTVSS
notes: as for B1
B17: SEQ ID NO 38 (antibody, V domains shown)
VH: EVQLLESGGGVVQPGRSLRLSCAASGFTFSSYAMSWVRQAPGKGLEWVSGIIGSGGSTYYADSVKGRFTISRDNSKNTLYLQMNSLRAEDTAVYYCVKDWNTTMITERGQGTLVTVSS
notes: as for B1
B18: SEQ ID NO 39 (antibody, V domains shown)
VH: EVQLLESGGGLVQPGGSLRLSCAASGFTFSNYAMSWVRQAPGKGLEWVSGIIGSGGSTYYADSVKGRFSISRDNSKNTLYLQMNSLRAEDTAVYYCVKDWNTTMITERGQGTLVTVSS
notes: as for B1
B19: SEQ ID NO 40 (antibody, V domains shown)
VH: EVQLLESGGGLVQPGGSLRLSCAASGFTFSSYAMSWVRQAPGKGLEWVSGIIGSGGSTYYADSVKGRFTISRDNSKNTLYLQMNSLRVEDTAVYYCVKDWNTTMITERGQGTLVTVSS
notes: as for B1
B20: SEQ ID NO 41 (antibody, V domains shown)
VH: EVQLLESGGGVVQPGRSLRLSCAASGFTFSNYAMNWVRQAPGKGLEWVSGIIGSGGSTYYADSVKGRFTISRDNSKNTLYLQMNSLRAEDTAVYYCVKDWNTTMITERGQGTLVTVSS
notes: as for B1
B21: SEQ ID NO 42 (antibody, V domains shown)
VH: EVQLLESGGGLVQPGGSLRLSCAASGFTFSNYAMNWVRQAPGKGLEWVSGIIGSGGSTYYADSVKGRFTISRDNSKNTLYLQMNSLRAEDTAVYYCVKDWNTTMITERGQGTLVTVSS
notes: as for B1
B22: SEQ ID NO 43 (antibody, V domains shown)
VH: EVQLLESGGGLVQPGGSLTLSCAASGFTFSNYAMNWVRQAPGKGLEWVSGIIGSGATTYYADSVKGRFTISRDNSKNTLNLQMNSLRAEDTAIYYCVKDWNTTMITERGQGTLVTVSS
notes: as for B1
B23: SEQ ID NO 44 (antibody, V domains shown)
VH: EVQLLESGGGLVQPGGSLRLSCAASGFTFSNYAMSWVRQAPGKGLEWVSGIIGSGGSTYYADSVKGRFTISRDNSKNTLYLQMNSLRAEDTAVYYCVKDWNTTMITERGQGTLVTVSS
notes: as for B1
B24: SEQ ID NO 45 (antibody, V domains shown)
VH: EVQLLESGGGVVQPGRSLRLSCAASGFTFSSYAMNWVRQAPGKGLEWVSGIIGSGGSTYYADSVKGRFTISRDNSKNTLYLQMNSLRAEDTAVYYCVKDWNTTMITERGQGTLVTVSS
notes: as for B1
B25: SEQ ID NO 46 (antibody, V domains shown)
VH: EVQLLESGGGLVQPGGSLRLSCAASGFTFSSYAMSWVRQAPGKGLEWVSGIIGSGGSTFYADSVKGRFTISRDNSKNTLYLQMNSLRAEDTAVYYCVKDWNTTMITERGQGTLVTVSS
notes: as for B1
B26: SEQ ID NO 47 (antibody, V domains shown)
VH: EVQLLESGGGLVQPGESLRLSCAASGFTFSNYAMNWVRQAPGKGLEWVSGIVGGGGTSYYADSVRGRFTISRDNSKNTLYLQMNSLRAEDTAVYYCVKDWNTTMITERGQGTLVTVSS
notes: as for B1
B27: SEQ ID NO 48 (antibody, V domains shown)
VH: EVQLLESGGGLVQPGGSLRLSCAASGFTFSNYAMTWIRQAPGKGLEWVSGITGDGGSTFYADSVKGRFTISRDNSKNTLYLQMNSLRAEDTAVYYCVKDWNTTMITERGQGTLVTVSS
notes: as for B1
B28: SEQ ID NO 49 (antibody, V domains shown)
VH: EVQLLESGGGLVQPGGSLRLSCAASGFTFSSYAMTWIRQAPGKGLEWVSGIVGGGGTSYYADSVRGRFTISRDNSKNTLYLQMNSLRAEDTAVYYCVKDWNTTMITERGQGTLVTVSS
notes: as for B1
B29: SEQ ID NO 50 (antibody, V domains shown)
VH: EVQLLESGGGLVQPGGSLRLSCAASGFTFSSYAMSWVRQAPGKGLEWVSGIIGSGGTTYYADSVKGRFTISRDNSKNTLNLQMNSLRAEDTAIYYCVKDWNTTMITERGQGTLVTVSS
notes: as for B1
B30: SEQ ID NO 51 (antibody, V domains shown)
VH: EVQLLESGGGLVQPGGSLRLSCAASGFTFSNYAMNWVRQAPGKGLEWVSGITGSGGSTYYADSVKGRFTISRDNSKNTLYLQMNSLRVEDTAVYYCVKDWNTTMITERGQGTLVTVSS
notes: as for B1
B31: SEQ ID NO 52 (antibody, V domains shown)
VH: EVQLLESGGGLVQPGGSLRLSCAASGFTFSSYAMNWVRQAPGKGLEWVSGIVGGGGTSYYADSVRGRFTISRDNSKNTLYLQMNSLRAEDTAVYYCVKDWNTTMITERGQGTLVTVSS
notes: as for B1

The binders below were run against T1, human BCMA (B-Cell Maturation Antigen) on NCI-H929 cells (human, UniProt Q02223 1-184) (assay: flow cytometry, HEK supernatants on NCI-H929 cells (BCMA+)).
T1 construct: whole, on cells; Endogenous BCMA on NCI-H929 myeloma cells; also called TNFRSF17; H929 cells (BCMA+, lambda-)
T1 sequence (looked up): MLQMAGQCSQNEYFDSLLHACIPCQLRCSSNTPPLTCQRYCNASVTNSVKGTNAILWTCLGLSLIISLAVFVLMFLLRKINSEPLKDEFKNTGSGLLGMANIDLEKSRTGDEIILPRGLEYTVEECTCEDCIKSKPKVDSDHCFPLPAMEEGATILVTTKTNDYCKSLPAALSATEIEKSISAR
Protocol: Supernatants of all antibodies were also tested by flow cytometry for binding to RPMI-8226 cells (BCMA+, lambda+) and H929 cells (BCMA+, lambda−). The samples were measured by flow cytometry using a Guava easyCyte 8HT instrument from EMD Millipore and analyzed using guavaSoft. Bound antibodies were detected with goat anti-human IgG F(ab')_2 conjugated to PE (Southern Biotech 2042-09). All antibodies were diluted in PBS with 1% BSA. Positive staining was determined by comparison to staining with a human IgG1 isotype control. The NCI-H929 and RPMI-8226 cell lines are human multiple myeloma lines expressing human BCMA, which were obtained from the American Type Culture Collection (ATCC) and cultured according to ATCC recommendations.
B1: binds. B2: binds. B3: binds. B4: binds. B5: binds. B6: binds. B7: binds. B8: binds. B9: binds. B10: binds. B11: binds. B12: binds. B13: binds. B14: binds. B15: binds. B16: binds. B17: binds. B18: binds. B19: binds. B20: binds. B21: binds. B22: binds. B23: binds. B24: binds. B25: binds. B26: binds. B27: binds. B28: binds. B29: binds. B30: binds. B31: binds.
